In the supplement of paper PMC9170038:

Test system: MS2 coat protein
Assay: apparent KD of MS2 coat protein; designed switch direction (-1 OFF switch, 1 ON switch): -1; higher = weaker reporter binding
Summary of the method: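 Normalised cluster fluorescence was curve-fitted, and each design's median over clusters is its apparent KD. Before this, SNAP-549-labelled MS2 coat protein was titrated from 0.7 or 1.5 nM, doubling to 3 µM, over RNA switches transcribed on Illumina chips by stalled E. coli RNA polymerase. Titrations had no input, 200 uM small-molecule ligand, or an oligonucleotide input, and steps lasted 0.8–1.5 h (lowest) to 10–20 min (highest).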

[1] = input ligand: microRNA oligo, concentration not stated
[2] = Eterna round: R95, input ligand: FMN 200 uM
[3] = Eterna round: R95, input ligand: microRNA oligo, concentration not stated
[4] = Eterna round: R95, input ligand: none

Row | Sequence | apparent KD of MS2 coat protein (input ligand: FMN 200 uM) | apparent KD of MS2 coat protein [1] | apparent KD of MS2 coat protein (input ligand: none) | apparent KD of MS2 coat protein [2] | apparent KD of MS2 coat protein [3] | apparent KD of MS2 coat protein [4]
1 | GCUCGUGGGCAAGGAUAUCCUACGCUGUUCUGGUUCGUGUCUGUUACAUGAGGAUCACCCAUGUGGGAGAAGGUGCACCAGGGU [Design 50] (Eterna round: R96, puzzle: Exclusion NG 2) | 22.8 nM | 12.3 nM | 18.3 nM | – | – | –
2 | ACCCUCCCGCAGGAUAUAAUAAAGUGGUACUUAUUAGAAGGGCGUACAUGAGGAUCACCCAUGUCGUGACGUGC [Eternabot (L1) Solution 5] (Eterna round: R97, puzzle: Exclusion 6) | 25.5 nM | – | 25.9 nM | – | – | –
3 | CGUUCUCGAGUCAGGAUAUCGACUAAUUCCCAAGUCGAGAAGGGACAUGAGGAUCACCCAUGUAAAGAAAAGAA [Ainteedle] (puzzle: Brourd's mod of Exclusion 4) | – | – | – | 118 nM | 30.1 nM | 30.3 nM
4 | CCAUAGUGAGGAUAUGUAAACGUGUUGGCGAAAUCAGCACGGCAGAAGGCACAUGAGGAUCACCCAUGUCCUGA [Eternabot (L2) Solution 45] (Eterna round: R97, puzzle: Exclusion 4) | 25.9 nM | – | 20.8 nM | – | – | –
5 | UUGAUGUGAGGAUAUAUUUUGUGUUUUCUUUAUGUUUUAUAACUUGAGGAUCACCCAAGUAGAAGGCGCUACGU [JR_Ex2_Sub065] (Eterna round: R97, puzzle: Exclusion 2) | 119 nM | – | 60.6 nM | – | – | –
6 | GACCAGCUAGGAUAUACAUGAGGAUCACCCAUGUGCAUUAAAGGGCUGGGUGACCCGCGUAGAAGGAGCGGGUC [Ustieded] (Eterna round: R97, puzzle: Exclusion 3) | 13.9 nM | – | 14.5 nM | – | – | –
7 | CGGUAGUAUGUAGGAUAUCGGUCAGUUUCUGAUCGAGAAGGACAUGAGGAUCACCCAUGUAAAACGACCGGUUUCUGGUUGCCG [JL ENG1 3.55] (Eterna round: R96, puzzle: Exclusion NG 1) | 15.4 nM | 12 nM | 15.6 nM | – | – | –
8 | CUUGUAAAUGUGAGGAUAUACUGUUAGUAAAGUUAGUAGAAGGUACAUGAGGAUCACCCAUGUUAAUUACUCUA [JR_BME4_Sub047] (puzzle: Brourd's mod of Exclusion 4) | – | – | – | 15.9 nM | 13.2 nM | 14.5 nM
9 | CCUUUGUCAGGAUAUCAGAACACGCCCGUAGGGAGUGCAAAUGAGAAGGGACAUGAGGAUCACCCAUGUACAGA [Leonveti] (puzzle: Exclusion 4) | – | – | – | – | 29.4 nM | –
10 | GGAUCUACUGAGGAUAUUACAUCACCCGACUGAUAAGAAGGCAGAACAUGAGGAUCACCCAUGUGGGUAGCCAC [Polaris5] (Eterna round: R97, puzzle: Exclusion 6) | 56.3 nM | – | 35.7 nM | – | – | –
11 | CAGAAGGGAGGAUAUACAUGACCGUUUUAAUGGUUUUUAGUACAUGAGGAUCACCCAUGUAGAAGGCCCGAACU [EX2 B.23] (Eterna round: R97, puzzle: Exclusion 2) | 51 nM | – | 21.8 nM | – | – | –
12 | CCCAUGUUAGGAUAUAUGGAAGGGCGGACGGGCGCCCUAAGGUAGAAGGGACAUGAGGAUCACCCAUGUAAUAA [Diquar] (Eterna round: R97, puzzle: Exclusion 4) | 194 nM | – | 160 nM | – | – | –
13 | UACAUGAGGAUCACCCAUGUUUUGUCGUGUAUGGUAUUUAUCUAGGAUAUCGUUUUAUUUAACCACGAGAAGGAGAGUAUCAAU [MOD2 Solution 21 by JMF] (Eterna round: R96, puzzle: Exclusion NG 3) | – | 33.9 nM | 39.7 nM | – | – | –
14 | AUUCCUUGUGUUAGGAUAUGUCACUACCGUAUGCGACAGAAGGAACAUGAGGAUCACCCAUGUGAGUUAGCCGA [Usened] (puzzle: Brourd's mod of Exclusion 4) | – | – | – | – | 52.4 nM | –
15 | CCAAGCUUAUUCAUUAACCACAUGAGGAUCACCCAUGUAUAGGCAAUUAUGACUGGGCUCUUUGGUGCUCGUCUUAU [Sensor-V1 #26] (Eterna round: R97, puzzle: Sensor, turn-off variant 1) | 11.5 nM | – | 11.7 nM | – | – | –
16 | UUAAUUAAUUGCGCAAGAUCACAUGAGGAUCACCCAUGUAUAUAGGAUAUCAGCUCGUGUAGAGCUGAGAAGGAUAUACAGCGC [ExNG3/3-A3] (Eterna round: R96, puzzle: Exclusion NG 3) | 886 nM | 419 nM | 495 nM | – | – | –
17 | UAAUUAAGUGUGAGGAUAUGCUGGUCCUUGGAUCAGCAGAAGGCACAUGAGGAUCACCCAUGUAAAUUAUUUAU [Mat - Exclusion 4 - JL Mod - D60] (Eterna round: R96, puzzle: Brourd's mod of Exclusion 4) | 332 nM | 54 nM | 76.5 nM | – | – | –
18 | GUGAACGGAGGAUAUAUAUGGGCAGCAUACGCUGCAGCUUCACAUGAGGAUCACCCAUGUAGAAGGCUGUACAC [Mat - Exclusion 2 - Mod of Hyphema - D101] (puzzle: Exclusion 2) | – | – | – | – | 8.26 nM | –
19 | GCGCGAAGCAAGGAUAUCCCAGGGAGCUCCCUGGGAGAAGGUGCCACAUGAGGAUCACCCAUGUGGUGAUCCUG [eternacac ex6r4 sub16] (Eterna round: R97, puzzle: Exclusion 6) | 25.6 nM | – | 17.7 nM | – | – | –
20 | CAGGUUAGAGGAUAUACGUAGGUACAGAUCUGUGUGUUCCUACAUGAGGAUCACCCAUGUAGAAGGCUAUCCUG [LRO-Excl2-09] (puzzle: Exclusion 2) | – | – | – | – | 61.9 nM | –
21 | AAGACAAAUGUAGGAUAUGCGUGGCGAAGCUAUGCAGAAGGACAUGAGGAUCACCCAUGUCUAAGCGUCUGCGUACAGAUGCUA [JL eng1 1.35 mod 8] (Eterna round: R96, puzzle: Exclusion NG 1) | 19.9 nM | 10.7 nM | 18.4 nM | – | – | –
22 | GAAAUACAUGAGGAUCACCCAUGUGAGGAUAUGCUAUGGAAAUAAAAAAUAAAACAUAGCAGAAGGUACAAAAG [Mat - Exclusion 1 - Eli mod - D43] (Eterna round: R96, puzzle: Exclusion 1) | – | 50.9 nM | – | – | – | –
23 | CAGUACUGAGGAUAUACAUGAGGAUCACCCAUGUGUUCCAGCUAGGAGACUAGCAAAAGUAGAAGGCAGUACUG [salish99_ex3_r3_074] (Eterna round: R96, puzzle: Exclusion 3) | 523 nM | 20 nM | 25.1 nM | – | – | –
24 | CAGUACUGAGGAUAUACAUGAGGAUCACCCAUGUGUUCCAGCUAGGAUACUAGCAAGUGUAGAAGGCAGUACUG [Mat - Exclusion 3 - Eli Mod - D7] (Eterna round: R97, puzzle: Exclusion 3) | 188 nM | – | 396 nM | – | – | –
25 | CUAAAUCAUGUAGGAUAUGCGUGGCGAAGCUAUGCAGAAGGACAUGAGGAUCACCCAUGUGCUUCCGUCUGAGUACAGACGGAA [Mat - Exclusion NG 1 - Mod of JL - D25] (Eterna round: R96, puzzle: Exclusion NG 1) | 77.2 nM | 160 nM | 232 nM | – | – | –
26 | AGGUGGAAGCAGGAUAUGCUUGUAUAAUUGAUAGCAGAAGGGCUAACAUGAGGAUCACCCAUGUAAGAGGUGUA [JR_E6_Sub058] (puzzle: Exclusion 6) | – | – | – | 340 nM | 177 nM | 206 nM
